The record followed here is patent publication US20200079833A1 (AstraZeneca / MedImmune, published 2020).

Starred links: 1 amine or outer side, 2 acyl side, 3 side chain; linkers in the order of their positions; H or OH if unused. Non-standard residues stand in square brackets, D forms with d. Groups on a side chain read outwards from the residue. No end group written: not given here. *: point of attachment. γGlu = O=C(O)[C@H](CCC(=O)[*:2])N[*:1]; Palmitoyl = CCCCCCCCCCCCCCCC(=O)*; αMeF = C[C@](N)(Cc1ccccc1)C(=O)O; αMeK = C[C@](N)(CCCCN)C(=O)O; αMeS = C[C@](N)(CO)C(=O)O; Aib = CC(C)(N)C(=O)O

T1: GLP-1R (INS1e assay) (UniProt P32301 22-463, limits assumed)
T1 sequence (looked up): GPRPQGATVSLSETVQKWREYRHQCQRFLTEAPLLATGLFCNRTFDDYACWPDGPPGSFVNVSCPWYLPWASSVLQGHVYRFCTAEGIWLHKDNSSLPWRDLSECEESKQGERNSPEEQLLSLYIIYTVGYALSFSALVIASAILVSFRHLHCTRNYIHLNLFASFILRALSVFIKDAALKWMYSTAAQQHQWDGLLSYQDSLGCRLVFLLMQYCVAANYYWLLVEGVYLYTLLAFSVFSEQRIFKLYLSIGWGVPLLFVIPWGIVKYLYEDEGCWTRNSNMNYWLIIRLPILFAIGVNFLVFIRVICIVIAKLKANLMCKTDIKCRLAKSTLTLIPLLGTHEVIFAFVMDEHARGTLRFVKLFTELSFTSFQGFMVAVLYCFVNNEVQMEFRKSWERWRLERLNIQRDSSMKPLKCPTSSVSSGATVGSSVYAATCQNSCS

B1: SEQ ID NO 88 (peptide)
peptide: HXEGSFTSDVSKFLEGEAAKEFIAFVVKGG
modifications: Aib2; α-MeF6; α-MeS11; K12(ε-γE-Palmitoyl); α-MeF13; α-MeK20; α-MeF22; α-MeF25; α-MeK28; C-terminal amide
B2: SEQ ID NO 86 (peptide)
peptide: H[Aib]EGS[αMeF]TSDV[αMeS]S[αMeF]K([γGlu-Palmitoyl])EGEAA[αMeK]E[αMeF]IA[αMeF]VV[αMeK]GG-NH2
modifications: N-terminus assumed
SMILES: CCCCCCCCCCCCCCCC(=O)N[C@@H](CCC(=O)NCCCC[C@H](NC(=O)[C@](C)(Cc1ccccc1)NC(=O)[C@H](CO)NC(=O)[C@](C)(CO)NC(=O)[C@@H](NC(=O)[C@H](CC(=O)O)NC(=O)[C@H](CO)NC(=O)[C@@H](NC(=O)[C@](C)(Cc1ccccc1)NC(=O)[C@H](CO)NC(=O)CNC(=O)[C@H](CCC(=O)O)NC(=O)C(C)(C)NC(=O)[C@@H](N)Cc1c[nH]cn1)[C@@H](C)O)C(C)C)C(=O)N[C@@H](CCC(=O)O)C(=O)NCC(=O)N[C@@H](CCC(=O)O)C(=O)N[C@@H](C)C(=O)N[C@@H](C)C(=O)N[C@@](C)(CCCCN)C(=O)N[C@@H](CCC(=O)O)C(=O)N[C@@](C)(Cc1ccccc1)C(=O)N[C@H](C(=O)N[C@@H](C)C(=O)N[C@@](C)(Cc1ccccc1)C(=O)N[C@H](C(=O)N[C@H](C(=O)N[C@@](C)(CCCCN)C(=O)NCC(=O)NCC(N)=O)C(C)C)C(C)C)[C@@H](C)CC)C(=O)O
B3: SEQ ID NO 87 (peptide)
peptide: H[Aib]EGS[αMeF]TSDV[αMeS]SK([γGlu-Palmitoyl])LEGEAA[αMeK]E[αMeF]IA[αMeF]VV[αMeK]GG-NH2
modifications: N-terminus assumed
SMILES: CCCCCCCCCCCCCCCC(=O)N[C@@H](CCC(=O)NCCCC[C@H](NC(=O)[C@H](CO)NC(=O)[C@](C)(CO)NC(=O)[C@@H](NC(=O)[C@H](CC(=O)O)NC(=O)[C@H](CO)NC(=O)[C@@H](NC(=O)[C@](C)(Cc1ccccc1)NC(=O)[C@H](CO)NC(=O)CNC(=O)[C@H](CCC(=O)O)NC(=O)C(C)(C)NC(=O)[C@@H](N)Cc1c[nH]cn1)[C@@H](C)O)C(C)C)C(=O)N[C@@H](CC(C)C)C(=O)N[C@@H](CCC(=O)O)C(=O)NCC(=O)N[C@@H](CCC(=O)O)C(=O)N[C@@H](C)C(=O)N[C@@H](C)C(=O)N[C@@](C)(CCCCN)C(=O)N[C@@H](CCC(=O)O)C(=O)N[C@@](C)(Cc1ccccc1)C(=O)N[C@H](C(=O)N[C@@H](C)C(=O)N[C@@](C)(Cc1ccccc1)C(=O)N[C@H](C(=O)N[C@H](C(=O)N[C@@](C)(CCCCN)C(=O)NCC(=O)NCC(N)=O)C(C)C)C(C)C)[C@@H](C)CC)C(=O)O

The target of the test is T1, GLP-1R (INS1e assay). Description: cell-based or functional assay.
Turning to B1, the “INS1e assay EC50 GLP-1 R n1” value stood at 0.277 nM, the “INS1e assay EC50 GLP-1 R n2” value came to 0.415 nM and the “INS1e assay EC50 Mean pM GLP-1R” value worked out at 346 pM.
The matching figures for B2: 0.0453 nM, 0.0845 nM and 65 pM.
Taken in the same sequence, the figures for B3 were 0.0436 nM, 0.0622 nM and 53 pM.
